Assay results taken from PMC11885821, “Structures of complete HIV-1 TAR RNA portray a dynamic platform poised for protein binding and structural remodeling”.
Numbering of substitutions follows the chain as printed. Names may count otherwise.

Legend:
[1] = molecular target: PKR dsRBMs (Homo sapiens) (UniProt P19525); assay: FP
[2] = molecular target: PKR (unphosphorylated) (Homo sapiens) (UniProt P19525); assay: FP
PKR dsRBMs [3] = molecular target: T1, PKR dsRBMs (Homo sapiens, UniProt P19525 9-167); assay: FP; conditions: protein: recombinant, tags: tag cleaved by TEV, hairpin
PKR (unphosphorylated) [4] = molecular target: T2, PKR (unphosphorylated) (Homo sapiens, UniProt P19525 1-551); assay: FP; conditions: protein: recombinant, tags: His tag (HisTrap purified), hairpin
Tat44-60 WT [5] = molecular target: T3, Tat44-60 WT (HIV-1, UniProt P04608); assay: ITC; 1 mM Mg2+; conditions: label: 3' FAM in FP; none in ITC and SEC-MALS; hairpin, blunt 2 G-C end; bulges C5, A17, U23-C24-U25
T3 chain: GISYGRKKRRQRRRAHQ

PKR dsRBMs [6] = molecular target: T1, PKR dsRBMs; assay: 2AP fluorescence lifetime; conditions: protein: recombinant; tags: tag cleaved by TEV; label: 2AP; hairpin
Tat44-60 WT [7] = molecular target: T3, Tat44-60 WT; assay: 2AP fluorescence lifetime; conditions: label: 2AP; hairpin
NC (nucleocapsid) = NC (nucleocapsid) (HIV-1, UniProt P04591 378-432); assay: 2AP fluorescence lifetime; conditions: protein: recombinant; tags: MBP tag cleaved by PreScission; label: 2AP; hairpin
Tat44-60 WT [8] = molecular target: T3, Tat44-60 WT; assay: crystal structure; peptide soaked into TAR-I crystals, 2.7 A; FP: 25 mM Tris-HCl pH 7.5, 50 mM NaCl, 50 mM KCl, 2 mM MgCl2, 21 C, 5 nM RNA; ITC: 25 mM Tris-HCl pH 7.5, 100 mM NaCl, 1 mM MgCl2, 25 C; conditions: hairpin, GAAA tetraloop
PKR (unphosphorylated) [9] = molecular target: T2, PKR (unphosphorylated); assay: FP; printed Kd 0.02 uM conflicts with log Ka and with text (3-fold weaker); conditions: protein: recombinant; tags: His tag (HisTrap purified); label: 3' FAM; hairpin
[10] = label: 3' FAM in FP, none in ITC and SEC-MALS, blunt 2 G-C end, bulges C5, A17, U23-C24-U25

T2 sequence (P19525 whole entry): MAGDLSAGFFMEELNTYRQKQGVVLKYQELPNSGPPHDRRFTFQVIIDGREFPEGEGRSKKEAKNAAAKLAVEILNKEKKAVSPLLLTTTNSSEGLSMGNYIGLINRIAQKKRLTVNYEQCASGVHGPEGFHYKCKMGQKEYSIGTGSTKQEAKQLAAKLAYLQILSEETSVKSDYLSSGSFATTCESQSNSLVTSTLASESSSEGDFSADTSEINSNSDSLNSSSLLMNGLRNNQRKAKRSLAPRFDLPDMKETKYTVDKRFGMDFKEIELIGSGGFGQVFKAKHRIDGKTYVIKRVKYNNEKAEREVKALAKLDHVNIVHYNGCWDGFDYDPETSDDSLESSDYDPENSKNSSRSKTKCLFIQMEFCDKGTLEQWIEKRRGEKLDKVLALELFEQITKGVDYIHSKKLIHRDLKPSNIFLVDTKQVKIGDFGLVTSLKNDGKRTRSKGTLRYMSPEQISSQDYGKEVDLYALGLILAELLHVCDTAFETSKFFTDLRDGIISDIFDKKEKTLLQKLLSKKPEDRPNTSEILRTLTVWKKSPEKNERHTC
T1 sequence (P19525 9-167): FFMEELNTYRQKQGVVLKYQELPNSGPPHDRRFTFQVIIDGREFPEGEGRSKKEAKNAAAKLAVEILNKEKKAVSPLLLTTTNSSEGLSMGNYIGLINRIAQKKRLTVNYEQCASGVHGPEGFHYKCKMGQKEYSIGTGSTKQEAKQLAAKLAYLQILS
Chain of PKR (unphosphorylated) (Homo sapiens) (P19525 whole entry): as the sequence (P19525 whole entry) above
Chain of PKR dsRBMs (Homo sapiens) (P19525 9-167): as the sequence (P19525 9-167) above

Work on VA-I RNA yielded a Kd [1] of 220 nM and a Kd [2] of 40 nM.

TARΔ23-39 gave a Kd [1] of 190 nM and a Kd [2] of 54 nM.

With CUCUGGUUAGACCAGAUCUGAGCCUGGGAGCUCUCUGGCUAACUAGGG (structured_RNA) [TARΔ4bp] the Kd (PKR dsRBMs [3]; label: 3' FAM) was 290 ± 20 nM and the Kd (PKR (unphosphorylated) [4]; label: 3' FAM) was 50 ± 3 nM.

Work on CCAGAUCUGAGCCUGGGAGCUCUCUGG (structured_RNA) [TARΔ14bp] yielded a Kd (PKR dsRBMs [3]; label: 3' FAM) of 2280 ± 700 nM and a Kd (PKR (unphosphorylated) [4]; label: 3' FAM) of 1230 ± 1000 nM.

Molecule GUUAGACCAGAUCUGAGCCUGGGAGCUCUCUGGCUAAC (structured_RNA) [TARΔ9bp] has a Kd (PKR dsRBMs [3]; label: 3' FAM) of 1900 ± 700 nM and a Kd (PKR (unphosphorylated) [4]; label: 3' FAM) of 130 ± 40 nM.

B1: TAR2GC (WT) (structured_RNA)
RNA: GGUCUCUCUGGUUAGACCAGAUCUGAGCCUGGGAGCUCUCUGGCUAACUAGGGAACC
With B1 the Kd (Tat44-60 WT [5]) was 160 ± 100 nM, the Kd (PKR dsRBMs [3]; [10]) was 120 ± 10 nM and the Kd (PKR (unphosphorylated) [4]; [10]) was 35 ± 5 nM.

B2: 2AP3 TAR2GC C57U (structured_RNA)
RNA: B1 RNA with G2A, C56U
modifications: 2-aminopurine at G3; C57U
B2: binds (PKR dsRBMs [6]); binds (Tat44-60 WT [7]); binds (NC (nucleocapsid)).

B3: 2AP17 TAR2GC (structured_RNA)
RNA: B1 RNA
modifications: 2-aminopurine at A17
B3: binds (Tat44-60 WT [7]); binds (NC (nucleocapsid)).

B4: 2AP20 TAR2GC (structured_RNA)
RNA: B1 RNA
modifications: 2-aminopurine at A20
B4: binds (PKR dsRBMs [6]); binds (Tat44-60 WT [7]); binds (NC (nucleocapsid)).

B5: TAR GAAA (TAR-I) (structured_RNA)
RNA: B1 RNA with U30G, G31A, G32A, G33A
B5: binds (Tat44-60 WT [8]).

B6: 2AP24 TAR2GC (structured_RNA)
RNA: B1 RNA with C23A
modifications: 2-aminopurine at C24
B6: binds (PKR dsRBMs [6]); binds (Tat44-60 WT [7]); binds (NC (nucleocapsid)).

B7: TAR A48U/C49G/U50A (structured_RNA)
RNA: B1 RNA with A47U, C48G, U49A
In the case of B7, the Kd (PKR dsRBMs [3]; label: 3' FAM) is reported as 360 ± 120 nM and the Ka (PKR (unphosphorylated) [9]) is reported as 7.02 ± 0.11 log10 M-1.
